Test results as given in patent US20030105283A1.

Tests used:
[1] = biological target: IgE antibodies in pooled sera from patients (collection of sera from 10 patients showing high values in RAST method); assay: RAST cross inhibition, pooled patient sera; competitor: MF-1 immobilised on solid phase
[2] = biological target: IgE antibodies in pooled sera from patients (collection of sera from 10 patients showing high values in RAST method); assay: RAST cross inhibition, pooled patient sera; competitor: MF-2 immobilised on solid phase
[3] = biological target: IgE antibodies in pooled sera from patients (collection of sera from 10 patients showing high values in RAST method); assay: RAST cross inhibition, pooled patient sera; competitor: MF-4 immobilised on solid phase

| Binder | IC50 [1] [µg/mL] | relative concentration for 50% inhibition (in brackets; homologous antigen = 1) [1] | IC50 [2] [µg/mL] | relative concentration for 50% inhibition (in brackets; homologous antigen = 1) [2] | IC50 [3] [µg/mL] | relative concentration for 50% inhibition (in brackets; homologous antigen = 1) [3] |
| --- | --- | --- | --- | --- | --- | --- |
| purified antigenic protein MF-1 (protein) PGDPTATAKGNEIPDTLMGYIPWTPELDSGEVCGIPTTFKTRDEWKGKKVVIVSIPGAYTPICHQQHIPPLVKRVDELKAKGVDAVYVIASNDPFVMAAWGNFNNAKDKVVFATDIDLAFSKALGATIDLSAKHFGERTARYALIIDDNKIVDFASDEGDTGKLQNASIDTILTKV | 0.038 | 1 | > 100 | > 7700 | 18 | 290 |
| purified antigenic protein MF-2 (protein, N-terminus blocked) EIGSTIPNATFAYVPYSPELEDHKVCGMPTSFQSHERWKGKKVVIVAVPGAFTPTCTANHVPPYVEKIQELKSKGVDEVVVISANDPFVLSAWGITEHAKDNLTFAQDVNCEFSKHFNATLDLSSKGMGLRTARYALIANDLKVEYFGIDEGEPKQSSAATVLSKL | 8.6 | 230 | 0.013 | 1 | 30 | 480 |
